Assay: yeast display, Sf9 membrane polyspecificity reagent, FACS + sequencing; frameworks hold sequencing errors
Method in brief: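 A synthetic nanobody library was expressed on Saccharomyces cerevisiae BJ5465 by galactose induction for 36–48 hours. The library was stained for 1 hour at 4 °C with 10% biotinylated, detergent-solubilized Sf9 membrane reagent and enriched with streptavidin microbeads before FACS. Low and high (top ~1%) gates were set on anti-HA fluorescence for expression and streptavidin fluorescence for reagent binding, and each polyreactivity label reflects the gate of origin.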

Sequence | polyreactivity (PSR sort gate)
QVQLVESGGGLVQAGGSLRLALLTPDLPSTINDMGWYRQAPGKERELVAAITRGGSTNYADSVKGRFTISRDNAKNTVYLQMNSLKPEDTAVYYCAAPSAGWRDGGDYWGHGTQVTVSS | low polyreactivity
QVQLVESGGGLVQAGGSLRLAVLPPVLPSTLNDMGWYRQAPGKERELVAAITRGGSTNYADSVKGRFTISRDNAKNTVYLQMNSQKPEDTAVYYCAAPYAGWRDGGDNWGQGTQVTVSS | low polyreactivity
QVQLVESGGGLVQAGGSLRLCCAASGLIFRRYTMGWYRQAPGKERELVAAISWRVGRTYYADSVKGRFTISRDNAKNTVYLEMNSLKPEDTAVYYCAAILYQYDTPQVSSSRLDYWGQGTQVTVSS | high polyreactivity
QVQLVESGGGLVQAGGSLRLCCAASGSIFRPNAMGWYRQAPGKERELVAGISSRGGSTYYADSVKGRFTISRDNAKNTVYLQMNSLKPEDTAVYYCNALTYSSQRNSFYYSFDHWGQGTQVTVSS | high polyreactivity
QVQLVESGGGLVQAGGSLRLCCAASGSTFGWNAMRSYRQAPGNERELVAAISSSGGITYYADSVKGRFPISRDNAKNTVYLQMNSLKPEDTAVYYCAAERDDDWFNYWGQGTQVTVSS | low polyreactivity
QVQLVESGGGLVQAGGSLRLICAASGASFFDKDMGWYRQAPGKERELVAAAITARGGSTYYADSVKGRFTISRDNAKNTVYLQMNSLKPEDTAVYYCAAGRPGELDYWGQGTQVTVSS | low polyreactivity
QVQLVESGGGLVQAGGSLRLICAASGFIFDTYTMGWYRQAPGKERELVAAISRSGASTYYADSVKGRFTISRDNAKNTVYLQMNSLKPEDTAVYYCATVYYPSYRGGYDYWGQGTQVTVSS | high polyreactivity
QVQLVESGGGLVQAGGSLRLICAASGFIFDYNTMGWYRPAPGKERELVAGITSGGSTNYADSVKGRFTISRDNAKNTVYLQMNSLKPEDTAVYYCATVDDEYYGYDYWGQGSQVTVSS | low polyreactivity
QVQLVESGGGLVQAGGSLRLICAASGFIFESNAMGWYRQAPGKERELVAAITSAGRTYYADSVKGRFTISRDNAKNTVYLQMNSLKPEDNAVYYCNATRSRYRYDYWGQGTQVTVSS | high polyreactivity
QVQLVESGGGLVQAGGSLRLICAASGFIFLDYAMGWSRPAPGKERELVAAISSRGARTYYADSVKGRFTISRDNEKNTVYLQMNSLKPEDTAVYYCAARGPLDRYGYWGQGTQVTVSS | high polyreactivity
QVQLVESGGGLVQAGGSLRLICAASGFIFNAYAMGWYRQAPGKERELVAAISTRGSNTYYADSVKGRFTISRDNAKNTVYLQMNSLKPEDTAVYYCNRVFSYQYKRDYWGQGTQVTVSS | high polyreactivity
QVQLVESGGGLVQAGGSLRLICAASGFIFPDYTMGWYRHAPGKERELVAAINVSGGSTYYADSVKGRFTISRDHAKNTVYLQMNSLKPEDTAVYYCAAVGGRFVRRSTMDYWGQGTQVTVSS | low polyreactivity
QVQLVESGGGLVQAGGSLRLICAASGFIFRRYAMGWYRQSPGKERELVAAISSRGGSTYYADSVKGRFTISRDNAKNTVYLQMNSLKPEDTAVYYCAAYDAVTYPFDYWGQGTQVTVSS | high polyreactivity
QVQLVESGGGLVQAGGSLRLICAASGFIIRYYAMGWYRQAPGKERELVAVISASGGSTYYADSVKGRFTISRDNAKNTVYLQMNSLKPEDTAVYYCNTKRYFFHRGDMDYWGQGTQVTVSS | high polyreactivity
QVQLVESGGGLVQAGGSLRLICAASGFIIYSYAMGWYRQAPGKERELVAGITSDGRTYYADSVKGRFTISRDNAKNTVYLQMNSQKPEDTAVSYCAARYYLFYRVSPYYYWGQGTQVTVSS | low polyreactivity
QVQLVESGGGLVQAGGSLRLICAASGFISNINVMGWYRQAPGKERELVAAITYIDGSTFYADSVKGRFTISRDNAKNTVYLQMNSLKPEDTAVYYCAKTRVRGSEFGYWGQGTQVTVSS | low polyreactivity
QVQLVESGGGLVQAGGSLRLICAASGFTFDANAMGWYRQAPGKERELVAAITRVGSTFYADSVKGRFTISRDNAKNTVYLQMNSLKPEDTAVYYCNAARDHVSGYVYWGQGTQVTVSS | low polyreactivity
QVQLVESGGGLVQAGGSLRLICAASGFTFEYYAMGWYRQAPGKERELVAAISGSGVSTYYADSVKGRFTISRDNAKNTVYLQMNSLNPEDTAVYYCAALGDKYGSNRLDHYWYIWYDSWGQGTQVTVSS | low polyreactivity
QVQLVESGGGLVQAGGSLRLICAASGFTFFAYAMGWYRQAPGKERELVAGISRSGGRTYYADSVKGRFTISRDNAKNTVYLQMNSLKPEDTAVYYCAAGIPVTSRFYGMDWGQGTQVTVSS | high polyreactivity
QVQLVESGGGLVQAGGSLRLICAASGFTFGYYAMGWYRQAPGKERELVAAITSRGTRTSYADSVKGRFTISRDNEKNTVYLQMNSLKPEDTAVNYCAARVLRGLGEYYWGQGTQVTVSS | high polyreactivity
QVQLVESGGGLVQAGGSLRLICAASGFTFSINTRGWYRQAPGKEREFVAGISRSGGSTYYADSVKGRFTISRDNAKNTVYLQMNSLKPEDTAVYYCNADRYSWYTPLGYDYWGQGTQVNVSS | high polyreactivity
QVQLVESGGGLVQAGGSLRLICAASGFTFVRYTMGWYRQAPGKERELVAVIRRGGSTYYADSVKGRFTISRDNAKNTVYLQMNSLKPEDTAVYYCNALSALAVEDGYWGQGTQVTVSS | low polyreactivity

Reference: the nanobody polyreactivity screen of Harvey et al. (2022)
